For experiment [1], the target named is human uPA (form not stated) (human, UniProt P00749). In words: ELISA. (In general: ELISA stands for enzyme-linked immunosorbent assay.)
Experiment [2] deals with full-length uPA (human urokinase plasminogen activator) (Homo sapiens, UniProt P00749, biotin (biotinylated antigen on streptavidin biosensors)). In words: BLI. For orientation: BLI is a label-free optical method that tracks binding on a fibre tip over time.

B1: AB2 Fab (Fab, V domains shown)
VH: QLTQSGGGLVKPGRSLRLSCTASGFTFGDYAMSWVRQAPGKGLEWVGFVRSESAGATTEYAASVKGRFTISRDDSKSIAYLQMNALKTEDTAVYYCIRGANWNWGQGTLVTVSS
VL: EIVLTQSPLSLPVTPGEPASISCRSSQLMNRNGNNFLDWYLQKPGQSPQLLIYLGSNRAPGVPDRFSGSGSGTDFTLKISRVEAEDVGVYYCMARVEAPYSFGQGTKLEIR
Take B1: the binding result in experiment [1] and in experiment [2] was “binds” each time.
